Experimental data published in patent US20200199241A1 (Chugai, published 2020).
Where a chain is given by its changes, count along the chain named.

B1: IgG1-F997 (antibody)
heavy: QVQLQESGPGLVKPSETLSLTCAVSGHSISHDHAWSWVRQPPGEGLEWIGFISYSGITNYNPSLQGRVTISRDNSKNTLYLQMNSLRAEDTAVYYCARSLARTTAMDYWGEGTLVTVSSASTKGPSVFPLAPSSKSTSGGTAALGCLVKDYFPEPVTVSWNSGALTSGVHTFPAVLQSSGLYSLSSVVTVPSSSLGTQTYICNVNHKPSNTKVDKKVEPKSCDKTHTCPPCPAPELLGGPSVFLFPPKPIDVLYISRTPEVTCVVVDVSHEDPEVKFNWYVDGVEVHNAKTKPREEQYNSTYRVVSVLTVLHQDWLNGKEYKCKVSNKALPAPIEKTISKAKGQPREPQVYTLPPSRDELTKNQVSLTCLVKGFYPSDIAVEWESNGQPENNYKTTPPVLDSDGSFFLYSKLTVDKSRWQQGNVFSCSVMHEALHYHVTQKSLSLSP
light: not shown
notes: EU numbering; copies: 2 + 2
B2: IgG1-F998 (antibody)
heavy: B1 heavy with I250Y
light: not shown
notes: EU numbering; copies: 2 + 2
B3: IgG1-F999 (antibody)
heavy: B1 heavy with I250K, E260H
light: not shown
notes: EU numbering; copies: 2 + 2
B4: IgG1-F1008 (antibody)
heavy: B1 heavy with L237R, S241K, I250K
light: not shown
notes: EU numbering; copies: 2 + 2
B5: IgG1-F1009 (antibody)
heavy: B1 heavy with L237R, S241K, I250K, T309Q, V310P, Q313A
light: not shown
notes: copies: 2 + 2
B6: IgG1-F1010 (antibody)
heavy: B1 heavy with L237R, S241K, I250K, V252T, T309A, Q313H, V438Y
light: not shown
notes: EU numbering; copies: 2 + 2
B7: IgG1-F1011 (antibody)
heavy: B1 heavy with I250K, V310P, V438Y
light: not shown
notes: EU numbering; copies: 2 + 2
B8: IgG1-F1012 (antibody)
heavy: B1 heavy with L237R, S241K, I250K, V310P, V438Y
light: not shown
notes: EU numbering; copies: 2 + 2
B9: IgG1-F1013 (antibody)
heavy: B1 heavy with I250K, T309Q, V310P, Q313A, V438Y
light: not shown
notes: EU numbering; copies: 2 + 2
B10: IgG1-F1015 (antibody)
heavy: B1 heavy with L237R, S241K, I250K, V252T, T309Q, V310P, Q313A, V438Y
light: not shown
notes: EU numbering; copies: 2 + 2
B11: IgG1-F1016 (antibody)
heavy: B1 heavy with I250K, N288E, T309Q, V310P, Q313A
light: not shown
notes: EU numbering; copies: 2 + 2
B12: IgG1-F1018 (antibody)
heavy: B1 heavy with L237R, S241K, I250K, V252T, N288E, T309Q, V310P, Q313A
light: not shown
notes: EU numbering; copies: 2 + 2
B13: IgG1-F1020 (antibody)
heavy: B1 heavy with P240D, I250K, T309Q, Q313A, N327G, V438Y
light: not shown
notes: EU numbering; copies: 2 + 2
B14: IgG1-F1021 (antibody)
heavy: B1 heavy with P240D, I250K, N327A, V438Y
light: not shown
notes: EU numbering; copies: 2 + 2
B15: IgG1-F1023 (antibody)
heavy: B1 heavy with S241D, I250K, T309Q, Q313A
light: not shown
notes: EU numbering; copies: 2 + 2
B16: IgG1-F1024 (antibody)
heavy: B1 heavy with I250K, T309Q, Q313A, K328D, L330Y
light: not shown
notes: EU numbering; copies: 2 + 2
B17: IgG1-F1025 (antibody)
heavy: B1 heavy with S241D, I250K, T309Q, Q313A, K328D, L330Y
light: not shown
notes: EU numbering; copies: 2 + 2
B18: IgG1-F1026 (antibody)
heavy: B1 heavy with I250K, V252T, T309A, Q313H
light: not shown
notes: EU numbering; copies: 2 + 2
B19: IgG1-F1027 (antibody)
heavy: B1 heavy with L237R, S241K, I250K, V252T, T309A, Q313H
light: not shown
notes: EU numbering; copies: 2 + 2
B20: IgG1-F1028 (antibody)
heavy: B1 heavy with G238A, S241D, I250K, T309Q, Q313A
light: not shown
notes: EU numbering; copies: 2 + 2
B21: IgG1-F1029 (antibody)
heavy: B1 heavy with I250K, T309Q, Q313A, I334E
light: not shown
notes: EU numbering; copies: 2 + 2
B22: IgG1-F1032 (antibody)
heavy: B1 heavy with P240D, I250K, T309Q, Q313A, N327G
light: not shown
notes: EU numbering; copies: 2 + 2
B23: IgG1-F1034 (antibody)
heavy: B1 heavy with L237K, S241K, I250K, V252T, V310P
light: not shown
notes: EU numbering; copies: 2 + 2
B24: IgG1-F1035 (antibody)
heavy: B1 heavy with L237K, S241K, I250K, V252T, T309Q, V310P, Q313A
light: not shown
notes: EU numbering; copies: 2 + 2
B25: IgG1-F1036 (antibody)
heavy: B1 heavy with L237K, S241K, I250K, V252T, N288E, T309Q, Q313A
light: not shown
notes: EU numbering; copies: 2 + 2
B26: IgG1-F1037 (antibody)
heavy: B1 heavy with L237K, S241K, I250K, V252T, T309Q, Q313A, M430I
light: not shown
notes: EU numbering; copies: 2 + 2
B27: IgG1-F1038 (antibody)
heavy: B1 heavy with L237K, P240D, S241K, I250K, V252T, V438Y
light: not shown
notes: EU numbering; copies: 2 + 2
B28: IgG1-F1040 (antibody)
heavy: B1 heavy with L237K, S241K, I250K
light: not shown
notes: EU numbering; copies: 2 + 2
B29: IgG1-F1041 (antibody)
heavy: B1 heavy with L237K, S241K, I250K, T309Q, V310P, Q313A
light: not shown
notes: EU numbering; copies: 2 + 2
B30: IgG1-F1042 (antibody)
heavy: B1 heavy with L237K, S241K, I250K, V252T, T309A, Q313H, V438Y
light: not shown
notes: EU numbering; copies: 2 + 2
B31: IgG1-F1043 (antibody)
heavy: B1 heavy with L237K, S241K, I250K, V310P, V438Y
light: not shown
notes: EU numbering; copies: 2 + 2
B32: IgG1-F1044 (antibody)
heavy: B1 heavy with L237K, S241K, I250K, T309Q, V310P, Q313A, V438Y
light: not shown
notes: EU numbering; copies: 2 + 2
B33: IgG1-F1045 (antibody)
heavy: B1 heavy with L237K, S241K, I250K, V252T, T309Q, V310P, Q313A, V438Y
light: not shown
notes: EU numbering; copies: 2 + 2
B34: IgG1-F1046 (antibody)
heavy: B1 heavy with L237K, S241K, I250K, N288E, T309Q, V310P, Q313A
light: not shown
notes: EU numbering; copies: 2 + 2
B35: IgG1-F1047 (antibody)
heavy: B1 heavy with L237K, S241K, I250K, V252T, N288E, T309Q, V310P, Q313A
light: not shown
notes: EU numbering; copies: 2 + 2
B36: IgG1-F1048 (antibody)
heavy: B1 heavy with L237K, S241K, I250K, V252T, T309A, Q313H
light: not shown
notes: EU numbering; copies: 2 + 2
B37: IgG1-F1050 (antibody)
heavy: B1 heavy with I250K, N288E, T309Q, V310P, Q313A, M430I
light: not shown
notes: EU numbering; copies: 2 + 2
B38: IgG1-F1051 (antibody)
heavy: B1 heavy with L237R, S241K, I250K, N288E, T309Q, V310P, Q313A, M430I
light: not shown
notes: EU numbering; copies: 2 + 2
B39: IgG1-F1052 (antibody)
heavy: B1 heavy with L237R, S241K, I250K, V252T, N288E, T309Q, V310P, Q313A, M430I
light: not shown
notes: EU numbering; copies: 2 + 2
B40: IgG1-F1053 (antibody)
heavy: B1 heavy with L237R, S241K, I250K, T309Q, Q313A
light: not shown
notes: EU numbering; copies: 2 + 2
B41: IgG1-F1058 (antibody)
heavy: B1 heavy with I250K, V252T, Q388E
light: not shown
notes: EU numbering; copies: 2 + 2
B42: IgG1-F1059 (antibody)
heavy: B1 heavy with I250K, V252T, Q388R
light: not shown
notes: EU numbering; copies: 2 + 2

molecular target: T1, soluble human FcRn complexed with β2-microglobulin (human, UniProt P61769 21-119, limits assumed); test: Biacore SPR, pH 7.0;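 also: test antibodies captured on a Protein L chip with human FcRn flowed over as analyte, KD obtained as the ratio of dissociation to association rate constants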
T1 construct: also called hFcRn
T1 sequence (chain, as listed by the source limits assumed, chain 1 of 2): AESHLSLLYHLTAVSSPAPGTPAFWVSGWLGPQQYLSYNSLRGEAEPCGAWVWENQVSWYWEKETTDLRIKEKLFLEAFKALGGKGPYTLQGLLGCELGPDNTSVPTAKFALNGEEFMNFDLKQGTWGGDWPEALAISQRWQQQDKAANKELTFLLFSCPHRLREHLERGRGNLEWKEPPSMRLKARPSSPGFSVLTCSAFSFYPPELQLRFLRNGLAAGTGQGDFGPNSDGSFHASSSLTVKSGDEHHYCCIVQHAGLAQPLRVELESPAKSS
T1 sequence (P61769 21-119 limits assumed, chain 2 of 2): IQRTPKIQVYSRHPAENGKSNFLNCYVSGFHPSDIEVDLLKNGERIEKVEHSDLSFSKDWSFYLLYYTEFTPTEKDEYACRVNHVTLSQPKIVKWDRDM
Procedure: A kinetic analysis of binding between human FcRn and the aforementioned antibodies was carried out using the BIACORE™ T100 or T200 surface plasmon resonance system (GE Healthcare). The antibodies being tested were captured on the CM4 Sensor Chip (GE Healthcare) on which a suitable amount of Protein L (ACTIGEN® protein (Alltech)) was suitably immobilized by amine coupling. Next, diluted human FcRn and a running buffer used as a blank were injected to allow the human FcRn to interact with the antibody captured on the sensor chip. A buffer consisting of 50 mmol/L sodium phosphate, 150 mmol/L NaCl and 0.05% (w/v) polysorbate 20 (Tween 20®) (pH 7.0 or pH 7.4) was used for the running buffer, and each buffer was also used to dilute the human FcRn. 10 mmol/L glycine-HCl (pH 1.5) was used to regenerate the sensor chip. All measurements of binding were carried out at 25° C. The KD(M) of each antibody to human FcRn was calculated based on kinetics parameters, i.e., the association rate constant ka (1/Ms) and the dissociation rate constant kd (1/s) calculated from a sensorgram obtained by the measurement. The BIACORE™ T100 or T200 Evaluation Software (GE Healthcare) was used to calculate each parameter.

Compared with B1, B2 is 2.2-fold higher in Kd: 380 nM for the first, 850 nM for the second. The first binds more tightly here.

B3 and B4 are within 1.5-fold of each other in Kd: 210 nM for the first, 170 nM for the second.

Compared with B5, B6 is 16-fold higher in Kd: 12 nM for the first, 190 nM for the second. The first binds more tightly here.

B7 and B8 are within 1.5-fold of each other in Kd: 45 nM for the first, 47 nM for the second.

B9 and B10 are within 1.5-fold of each other in Kd: 30 nM for the first, 22 nM for the second.

B11 and B12 are within 1.5-fold of each other in Kd: 3.8 nM for the first, 3.2 nM for the second.

First: B13
Second: B14
The Kd of the first is 3.9-fold lower: 85 nM for the first, 330 nM for the second.

B15 and B16 are within 1.5-fold of each other in Kd: 44 nM for the first, 40 nM for the second.

First: B17
Second: B18
The Kd of the first is 2.3-fold lower: 36 nM for the first, 84 nM for the second.

Going from B19 to B20, the Kd falls from 86 nM to 46 nM (1.9-fold). The second binds more tightly here.

B21 and B22 are within 1.5-fold of each other in Kd: 51 nM for the first, 43 nM for the second.

Compared with B23, B24 is 1.5-fold lower in Kd: 15 nM for the first, 10 nM for the second. The second binds more tightly here.

Compared with B25, B26 is 4.4-fold higher in Kd: 14 nM for the first, 61 nM for the second.

B27 and B28 are within 1.5-fold of each other in Kd: 280 nM for the first, 200 nM for the second.

Going from B29 to B30, the Kd rises from 14 nM to 200 nM (14-fold). The first binds more tightly here.

B31 and B32 are within 1.5-fold of each other in Kd: 52 nM for the first, 35 nM for the second.

First: B33
Second: B34
The Kd of the first is 5.6-fold higher: 25 nM for the first, 4.5 nM for the second.

First: B35
Second: B36
The Kd of the first is 29-fold lower: 3.4 nM for the first, 99 nM for the second.

B37 and B38 are within 1.5-fold of each other in Kd: 3.5 nM for the first, 3.9 nM for the second.

Going from B39 to B40, the Kd rises from 3.2 nM to 42.3 nM (13-fold).

B41 and B42 are within 1.5-fold of each other in Kd: 131 nM for the first, 139 nM for the second.
